The values below come from article PMC8368726, “Granzyme A Produced by γ9δ2 T Cells Activates ER Stress Responses and ATP Production, and Protects Against Intracellular Mycobacterial Replication Independent of Enzymatic Activity” (Frontiers in Immunology, 2021).

This series concerns the molecule itself. Briefly: non-reducing SDS gel electrophoresis (silver stain and western blot); purified GzmA run under non-reducing conditions; homodimer at ~50 kDa and polymers of it. In general terms: Immunoblotting shows a protein as a band on a membrane.

B1: Native human Granzyme A (enzyme, UniProt P12544 29-262, looked up)
chain: IIGGNEVTPHSRPYMVLLSLDRKTICAGALIAKDWVLTAAHCNLNKRSQVILGAHSITREEPTKQIMLVKKEFPYPCYDPATREGDLKLLQLMEKAKINKYVTILHLPKKGDDVKPGTMCQVAGWGRTHNSASWSDTLREVNITIIDRKVCNDRNHYNFNPVIGMNMVCAGSLRGGRDSCNGDSGSPLLCEGVFRGVTSFGLENKCGDPRGPGVYILLSKKHLNWIIMTIKGAV
notes: Granzyme A (GzmA), native human protein, commercially obtained; Some monomer at ~25 kDa is seen beside the homodimer; also called NhGzmA; native GzmA; source: bought: TheraTest (Lombard, IL)
Regarding B1, the binding result was “binds”.
